Experimental data published in patent EP0871495B1.

Biological target: MHC class II antigen on the Raji B cell line
Assay: cell-based or functional assay

Substance “CD4:ζ chimera (CD4 extracellular domain fused to human T cell receptor ζ chain)” has a cytolysis (51Cr release) of Raji (MHC class II+) cells by CTL expressing CD4:ζ of 5 % cytolysis.
